Experiment: soluble on expression in E. coli; label from the status in PepcDB or PDB records

Sequence | soluble on expression in E. coli
MAHHHHHHMPHIPRNHYLVVHDAIRKLLGPDAQLAAFVKAQHAFQCDMLVNDARTDPEELTRAGARHSGGGIGDDAAAKAGVGELARGLQAVLGICDVVPHTRRVDVIFRDRSLIQLALGAAKRDLPYALETGADVNQEPDWRLRNRLRISLGYDEELFLAQCTRSMNVAARILEKCAFDYARYSALMSTNAAMAAMYEASGQRWQAVLPPVTYWQAHCYSLMKAYPCRHYQQIVATVEHNFAAYYGEFPMTNPYCDGEDLNTIQVVRWLCEAFNAGAAVSHVTSAASSPVTVNEWQTVDCSMPAAMEDGDAEKGAAVMDNMADGRSSQEGRH | not soluble
MGSDKIHHHHHHMRKERDYLGKLEIEGEVYYGIHTKRALMNFPSTGEKLDETFIWAYFMVKKACALLNTELGYLDERTGNAIVKACDEWEDLKKHVVVDPLSGGAGTSINMNVNEVIANRATEILGGKKGEYLVDPIDHVNLHQSTNDTFPTSAKIATIVKLRRLIDEVINLQEKIQEKEKEFYSIRKPGRTQLMDGPPIMLGQEFGAFADALARDRWRLYKVEERIRSVNIGGTAIGTGVGAPKDYILKIVEKVREVTKVKIAKAENLIDATQNWDVFAEVHGLLKSLAVNLYKISNDIRLLGSGPNTVIGELILPAVQAGSSIMPGKINPVVSEYVMQICHMVFGHDMILNHACALGNLELNQFAPLIVHLTLKSLTLLTNACRSLASYISKIKANNERCEEHLRRSVSNLTPLIKLFGYEAVSEAIKKANWDIKKAVEILSQEKNIPVEEILKVLNLKKMTGLGYSL | not soluble
MVVVYVVKIGGSLTNNAVNLLENLKKLGEKVVIIPGGGNFANVVRNLHENEKINDISAHKLATMCTDITGTYFSEISGIKTADNLFDAKRILQNESIVIILPSNIILSTDELPCSWEVTSDSFAAYIAKLLNSKTLIIATDVDGIYDKYPEGKLLNTINTKTIKGFTSVDKHLPKLISEYGIKCFVVNGNHPERINNIFKGVVDTYTKITLKLEHHHHHH | not soluble
MQRNLSHIISQATSAPLLLEPAYARVFFCALGRESGINSLHIPGNNESLDQSDMALVTGDFMATGKPQARFYQVVNGIAVLPVTGTLVHKLGGMRPFSGMTGYDGVTARLQQAVSDPEVKGILLDIDSPGGQAAGAFDCADMIYRMREQKPVWALANETACSAAMLLAAACSHRLVTQTSRMGSIGVVMAHTSYAEKLKQEGIDITLIYSGAHKADLTPSQKLPESVYADYQQRMDEARKMFAEKVARYTGLSVDAVMATEAAVYDGQAIITTGLADGMVNAADAIGVMAEAINSNKTGGTMPELSAADAVTQENQRVMGILGCPEARGHEALAQMLAGQPGMSVAQAKSILAAAAPADTTSTADRILALEEAGGRETLAQTLAAMPEMTVEQARTILAASPIAAATSLHDAVMALDEAKGREELAEKLAVMPGMTTDQARDLLAAAPDKSGNAGLSMNNAFDAFMQSHSPGPISGGKGHSNDTETTLLMSIPGTSATLEHHHHHH | not soluble
MDAQYDISFADVEKAHINIRDSIHLTPVLTSSILNQLTGRNLFFKCELFQKTGSFKIRGALNAVRSLVPDALERKPKAVVTHSSGNHGQALTYAAKLEGIPAYIVVPQTAPDCKKLAIQAYGASIVYCEPSDESRENVAKRVTEETEGIMVHPNQEPAVIAGQGTIALEVLNQVPLVDALVVPVGGGGMLAGIAITVKALKPSVKVYAAEPSNADDCYQSKLKGKLMPNLYPPETIADGVKSSIGLNTWPIIRDLVDDIFTVTEDEIKCATQLVWERMKLLIEPTAGVGVAAVLSQHFQTVSPEVKNICIVLSGGNVDLTSSITWVKQAERPASYQSVSVHHHHHH | soluble
MEHVAFGSEDIENTLAKMDDGQLDGLAFGAIQLDGDGNILQYNAAEGDITSRDPKQVIGKNFFKDVAPCTDSPEFYGKFKEGVASGNLNTMFEYTFDYQMTPTKVKVHMKKALSGDSYWVFVKRV | soluble
MSNVCIVYSSTHHGNTEKVLNKIKEKFPETVLIKAGDFNPDDFNRYEAIGFASGIFYFKFAKPVDKLFEQALVGSVQKLFFIYTAGAVNAGFEKTLRKKTEQSGKICMGIFGCKGFDTFGPLKLIGGLNKNSPNEKDFKNAIDFFEKNIINALEHHHHHH | soluble
MKKVTAMLFSMAVGLNAVSMAAKAKASEEQETDVLLIGGGIMSATLGTYLRELEPEWSMTMVERLEGVAQESSNGWNNAGTGHSALMELNYTPQNADGSISIEKAVAINEAFQISRQFWAHQVERGVLRTPRSFINTVPHMSFVWGEDNVNFLRARYAALQQSSLFRGMRYSEDHAQIKEWAPLVMEGRDPQQKVAATRTEIGTDVNYGEITRQLIASLQKKSNFSLQLSSEVRALKRNDDNTWTVTVADLKNGTAQNIRAKFVFIGAGGAALKLLQESGIPEAKDYAGFPVGGQFLVSENPDVVNHHLAKVYGKASVGAPPMSVPHIDTRVLDGKRVVLFGPFATFSTKFLKNGSLWDLMSSTTTSNVMPMMHVGLDNFDLVKYLVSQVMLSEEDRFEALKEYYPQAKKEDWRLWQAGQRVQIIKRDAEKGGVLRLGTEVVSDQQGTIAALLGASPGASTAAPIMLNLLEKVFGDRVSSPQWQATLKAIVPSYGRKLNGDVAATERELQYTSEVLGLNYDKPQAADSTPKPQLKPQPVQKEVADIAL | not soluble
MSSSSSSEDELEKKVTKEQKKKETKSKKRQSEAVEEEKQEVKKAKNEEEVSGRLKDSDGNEMFEIGNLRYATVSKFKGKEYVNIREYYIDRDSQKMMPSRKGISLSKAQWANLKDLIPEIDKKF | soluble
MSLSGFDADAIDRTTAADLAEVGSDKWTRYPGCIGAFIAEMDYGLAPCIQQAIDSACDHCKLGYIPEPWKRRVAEACAGWQKSHYGWDVDPDIIRVVPDVLEAYEIFLRELVGAGNAVVVPTPAYMPFLSVPKLYDVDVIEIEMLQGTDETTGEREWLFDFNAIERAFAAGCHAFVLCNPHNPIGKVLTLAEEQRLCELAERYDVRIFNDEIHAPFVFEGRHIPYPTISKAAARQSMTATSASKSFNIPGTKCAQVLLTNPADREMWAERAEWSEHQTATIGAIATTTAYNEGDPWFQDALSYVRRNLGLFDKQMRTRFSGVGYIRPRGTYIAWLDFGPLGIDDPAAYFLEKAKVALTDGRSCGRAGAGCVRVNMAMPYPLLVDCLNRMHDALQADGEGHHHHHH | soluble
MTISTNHSLASRQQLKQGKPFSILVLGTDVGALGRGTSYAGNTDTLELITVNPKKHTLTTTAIPRDTLVRVETKNKIEYTKINAAYALGGPREIKKQVHELLDVPVDYYALVNMGGLEKTVNAVGGVTVNNPFAFKYEGHTYPKGKQYLNGSEALGYSRMRYDDPDNDYGRQKRGQQVLLSALTKVNKSKNIMQMNSLLDTAKDNVRTDLPLDDLMTLYKNYHGALADTQSDHLQGKNATIDNFSFQIAPNWEMQRLSDNTRQALGLTKVKVNNIQTKMNDMQTNWNGYNNVNYVLPNNAQVYIPVNKVLEHHHHHH | soluble
MAHHHHHHMFKFVSSIGDAAYKAASKTGLAAGSEQPPYPCALPLQVIEDCEDTETTERVLNDTYAAVRDLLSDDLPLLHSTISDVQAHKPFKLVDFTDREGDIRLFTRPHVGSYNFARVTLTLDNVSPAKVLTFMHAQSLEARNRYSSNLCQYDVIARNPELPAQYIGNDNDHLEELCRMGIRDWHVEYNRYSAPPPVTARDFVYLVEKRYAPEQRCYYIYGTSVDYRDTAGIAIEKDNCVRGAVVFGWRFQHVGRKTYCTYVSCMSPNGWAPTFIVGWMKTAIAKELQNARRVLYQDVPSCHAAGASSEYAKGALAAYDAPITSCRQNKPTRDHSSSKSSAQKLGNAMEHEERRLLEDEKPIVFE | soluble
MGSDKIHHHHHHMSHVSYAEPPAQGWDIHCHTVFSDGTETPRTLVEQARKLGLHGVAIADHDTTAGWDEATEASEEIGLPLLLGTEITAVDEDVSVHMLAFQYDPSNEHISSMFANTRAARLRRTKRMVERLSQDFPITWDDVLAQVKEGERTTIGRPHIADALVAAGVYETRSDAFADAVSAKSKYYIPTPSPSTHEVIAAVKGAGGVVVAAHAGDPQRNRRLLSDEQLDAMIADGLDGLEVWHRGNPPEQRERLLTIAARHDLLVTGGSDWHGKGKPNGLGENLTDDDTVREILCRGVDLIGRVGSSHAA | not soluble
MGSDKIHHHHHHMSLRRIMVTAVRNLHPVTLLPSPRINILYGANGSGKTSVLEAVHLLGLARSFRSTRLNPVIQYEQAACTVFGEVQLTEGGTSNLGVSRERQGEFTIRIDGQNARSAAQLAELLPLQLINPDSFRLLEGAPKIRRQFLDWGVFHVEPRFLPAWQRLQKALRQRNSWLRHGTLDPASQAAWDRELCLASAEIDEYRRNYIKALKPVFERTLSELVELDGLTLSYYRGWDKDRELQEVLASSLLRDQQMGHTQAGPQRADLRLRLAGNNAADILSRGQQKLVVCALRIAQGHLVSQARRGHCIYLVDDLPSELDDQHRRALCRLLEELRCQVFITCVDHELLREGWQTETPVALFHVEQGRITQTHDHRE | not soluble
MSLGKLFGTDGIRGVTNTELQPEFALKIGKAIGTYFGKGARILIGRDVRAGGDMLLKAVESGLLSSGVLVYEAGMAPTPAFQYGVKALGYDGGVIITASHNPAEYNGIKVLSPHGIEISREDEDKIEDIYFNSRFHVVEWNGLVNDVKREDKVIETYLRGILSHVDTEKIKSKKYKVLIDPANSVGTLVTPIVARELGCKVFTINGNLDPLFSARTPEPTFESLTESAKVAKQLGVDLAVAHDGDADRAIFIDSMGRVQWGDRSGTLLSYWASVKAPNLPRRIFTAVSSSSLVEEYLKKYNIEVKWTKVGSIDIAHMLFKEKGVAGFEENGGFMYPPHQTVRDGAMSFALMLDMMASENESSAELFNRLPVYYLVKTKVRVTEKSDIKKIYDEVMNKYGNYGNTVTIDGVKIIGSDFWLLVRKSGTEPIIRILVEAKDENKSKELAKELEKLVSELVEGHHHHHH | soluble
MAHHHHHHMKKAKGSMKRLREGAENGTGGRNSSMKRQKGSTTGALSFAITNNTVTLERKARRQPKVAERCEDDDDEEDVELSKAVQAQTLSFLQHLNSKSSKTFWELRDVAQGKLSAASATTATSSSSQLPSSSRTKAAKGNAKGAKKLADDGEELWRVGGPYISGDQADDTDESERECGRTSDSELQSSTSSSEPSWVTDSSEEEDGGGSDDEAESAPVAAGATSRRSAAEPPKRGGGGGRLFQGGGDGVWDED | soluble
MGSDKIHHHHHHMFLGEDYLLTNRAAVRLFNEVKDLPIVDPHNHLDAKDIVENKPWNDIWEVEGATDHYVWELMRRCGVSEEYITGSRSNKEKWLALAKVFPRFVGNPTYEWIHLDLWRRFNIKKVISEETAEEIWEETKKKLPEMTPQKLLRDMKVEILCTTDDPVSTLEHHRKAKEAVEGVTILPTWRPDRAMNVDKEGWREYVEKMGERYGEDTSTLDGFLNALWKSHEHFKEHGCVASDHALLEPSVYYVDENRARAVHEKAFSGEKLTQDEINDYKAFMMVQFGKMNQETNWVTQLHIGALRDYRDSLFKTLGPDSGGDISTNFLRIAEGLRYFLNEFDGKLKIVLYVLDPTHLPTISTIARAFPNVYVGAPWWFNDSPFGMEMHLKYLASVDLLYNLAGMVTDSRKLLSFGSRTEMFRRVLSNVVGEMVEKGQIPIKEARELVKHVSYDGPKALFFG | soluble
MAMEKPVLWYIADPMCSWCWGFAPVIENIRQEYSAFLTVKIMPGGLRPGTNTPLLPEKRAQILHHWHSVHITTGQPFTFENALPEGFIYDTEPACRGVVSVSLIEPEKVFPFFAAIQRAFYVGQEDVAQLAILKKLAVDLGIPESRFTPVFQSDEAKQRTLAGFQRVAQWGISGFPALVVESGTDRYLITTGYRPIEALRQLLDTWLQQHGV | soluble
MGLRNENGIVVYPLINGAYRVAASDNYTSNFGLEWNTFQKTQIDKFSGNTVSEERLFAQTNWQKNGLEGETILEVGSGAGRFSQIMLDHTKATLYSVDYSEAVEANYRNNGPHERFKLFQASIYELPFKQASFDRVICLGVLQHTPDFKASVKALVEMVKPGGELVIDFYPIRNVFTKVHGKYLLRPILKRVNHHRLMSLIRNNIDFLISIYTFNRRIGLGVFNRFVPICEIERTLPKGMTPEQLKEWIILDTFDMFSPEYDQPQRLSTVAKWVKEFGMADVDASWVTYHGLEHHHHHH | not soluble

Source: the DeepSol protein solubility set
